Measured values: the supplement of paper PMC10567573
± gives the standard deviation.

Test: protein stability index of a GFP-peptide fusion (GPS, HEK-293T) (PSI 1-6); higher = more stable
[1] = treatment: DMSO, c terminus: a fixed tail appended
[2] = treatment: MLN4924 1 uM, 8 h, c terminus: a fixed tail appended
[3] = treatment: DMSO, c terminus: native
[4] = treatment: MLN4924 1 uM, 8 h, c terminus: native
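Further: 24-mer peptide tiles fused after GFP, lentivirally expressed, FACS-sorted into six equal bins by GFP/DsRed ratio, decoded by Illumina sequencing, PSI is the read-weighted mean bin number.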

Sequence	protein stability index [1]	protein stability index [2]	protein stability index [3]	protein stability index [4]
LKEDGMETVPWFPKKISDLDHCAN [TPH1]	4.11 ± 0.25	4.09 ± 0.21		
LKKLAEENPDLQEAYIAKQKRLKS [GDAP1]	4.38 ± 0.22	4.6 ± 0.28		
LKLALDMEIATYRKLLESEECRMS [KRT71]	2.79 ± 0.46	2.88 ± 0.24		
LKLWEIGKIIGGMWRDLTDEEKQE [SMARCE1]	2.67 ± 0.55	3.44 ± 0.43		
LKNSNYESIQQTARSIAEQAHELA [PPTC7]	3.91 ± 0.54	3.78 ± 0.26		
LKYVRGLLQTEPQNNQAKELERLI [FIS1]	2.89 ± 0.29	3.02 ± 0.29		
LLAAREDLSKIIRTSSGTSREKTA [FAM98B]	4.05 ± 0.15	4.23 ± 0.24		
LLDLDPEVECLKANTNEVLWAVVA [GOLPH3]	1.94 ± 0.21	2.22 ± 0.41		
LLESPQLATLAEDVTAALAKQGL [MAP2]			4.66 ± 0.21	4.53 ± 0.2
LLFCCQCVDVVFYNPDLKKVVEAH [RHOBTB3]	2.4 ± 0.14	3.01 ± 0.52		
LLFSGGLSESETGPMEEVERQVLP [PBXIP1]	4.06 ± 0.27	4.18 ± 0.38		
LLGPATGCLLDDGLEGLFEDIDTS [SERTAD1]	4.27 ± 0.097	4.32 ± 0.37		
LLKHSNIVRLHDSISEEGFHYLVF [CAMK2B]	2.68 ± 0.46	2.42 ± 0.37		
LLLILCMQHSFPEPGRLYLDLILA [TMEM192]	3.3 ± 0.48	3.11 ± 0.32		
LLLLLFWGVVSHSFPATLETQEQD [MMP1]	2.97 ± 0.58	2.76 ± 0.82		
LLLSFWKETDPLTFNFISSLKAIC [PLD5]	3.47 ± 0.96	2.44 ± 0.12		
LLNPEKYKAKSRSPGSPVGEGTGS [ADD1]	4.52 ± 0.26	4.55 ± 0.21		
LLPTLYEIHSKTTAYSRLNETQPI [RNF180]	1.96 ± 0.15	2.15 ± 0.41		
LLQIIDTTLLKCYLHTNVALVAPL [VPS39]	3.13 ± 0.49	3.38 ± 0.21		
LMGPSRMSLFSLYMVQDQHECILP [M1AP]	2.58 ± 0.3	2.33 ± 0.24		
LNCPFCGARLGGFNFVSTPKCSCG [RNF180]	2.25 ± 0.51	3.28 ± 0.38		
LNECVGTAYWALAGSIGGLFFAVG [SLC22A15]	3.19 ± 1.4	3.72 ± 0.21		
LNIYKTLKTHLIEKGILQPTLKV [CDS1]			2.71 ± 0.94	2.86 ± 0.8

Sequence	protein stability index [1]	protein stability index [2]	protein stability index [3]	protein stability index [4]
LNLNYNCISDELLENLCENASTLR [FBXO39]	3.28 ± 0.16	3.29 ± 0.21		
LNSPPGPHSAKTEEHTTILRPSYT [CDC14A]	4.41 ± 0.61	4.651 ± 0.039		
LPGNTTEATPRSLRASGSLCGPHA	4.46 ± 0.38	4.28 ± 0.3		
LPLDDQVALLRAHAGEHLLLGATK [HNF4A]	3.6 ± 0.19	3.63 ± 0.19		
LPNASADSLGGSQEMVQRPQPHRN [TRAF3IP2]	5.25 ± 0.13	5.26 ± 0.16		
LPPSMERGYPPPRDSYSSSSRGAP [RBMX]	4.5 ± 0.17	4.53 ± 0.2		
LPSLRTVSSSVIEQLFFVRLVGKT [NR2F2]	2.44 ± 0.37	2.28 ± 0.071		
LPTTKMAQTNPTPGSLGPWKITIY [CRYBA1]	2.71 ± 0.48	2.19 ± 0.49		
LPWSSVLRVWDMFFCEGVKIIFRV [TBC1D10A]	2.96 ± 0.72	3.34 ± 0.86		
LQGDLKTLMGKLKLKNTVTIQQEK [SASS6]		2.81 ± 0.25		
LQMKLEKLREKERKKEAKRKISSL [FAM50A]	3.71 ± 0.45	3.98 ± 0.53		
LQNFSSSWSDGMAFCALVHSFFPD [SMTNL2]	2.6 ± 0.39	2.42 ± 0.44		
LREERGHPLHPRHRKAVHLRTRGR [C6orf223]	4.08 ± 0.23	4.06 ± 0.36		
LRFFKEKDGKAFHPTYEEKLKLVA [ACBD3]	2.53 ± 0.26	2.5 ± 0.55		
LRLENNHCHIEESEHVLKKAHKYS [VPS39]	2.87 ± 0.37	3.31 ± 0.45		
LRQFFKQLPSPPFLPAAGTADCR [CEBPD]			1.89 ± 0.67	2.16 ± 0.28
LSLGLATVDIQNPDITSSRYRGLP [WAS]	2.96 ± 0.25	3.12 ± 0.22		
LSPDIMKDAYVQKLVKVCNGHDCW [TENT5D]	2.41 ± 0.72	2.35 ± 0.17		
LSRLSLMAMPNGFHEDGPQGPGGD [PSD2]	4.89 ± 0.15	4.62 ± 0.13		
LSRYQNELAGVDTELLAERFYYQA [SMG5]	2.7 ± 0.51	2.81 ± 0.43		
LSSRWKNWWIRGILTLTMISLFFL [CDS1]	2.54 ± 0.37	2.17 ± 0.36		
LTAQGQQFHCHKAVLASCSQYFRS [KLHL14]	2.27 ± 0.25	2.37 ± 0.33		
